B1: DIRPLR Linum usitatissimum: Bifunctional pinoresinol-lariciresinol reductase (DIRPLR) from Linum usitatissimum (protein, listed as Linum usitatissimum)
chain: MGRCRVLVVGGTGYIGKRIVKASIEHGHDTYVLKRPETGLDIEKFQLLLSFKKQGAHLVEASFSDHESLVRAVKLVDVVICTVSGAHSRSLLLQLKLVEAIKEAGNVKRFIPSEFGMDPARMGDALEPGRETFDLKMVVRKAIEDANIPHTYISANCFGGYFVGNLSQLGPLTPPSDKVTIYGDGNVKVVYMDEDDVATYTIMTIEDDRTLNKTMYFRPPENVITHRQLVETWEKLSGNQLQKTELSSQDFLALMEGKDVAEQIVIGHLYHIYYEGCLTNFDIDADQDQVEASSLYPEVEYTRMKDYLMIYL
B2: CCoAOMT Eleocharis dulcis: Caffeoyl CoA O-methyltransferase (CCoAOMT) from Eleocharis dulcis (protein)
chain: MSTTTTTQTKTETQSQTGAQNGAEQQTRHSEVGHKSLLQSDALYQYILETSVYPREPECMKELRDITAKHPWNLMTTSADEGQFLNLLLKLIGAKKTMEIGVYTGYSLLATALAIPEDGTILAMDINRENYELGLPVIEKAGVAHKIDFREGPALPVLDQLIEDPANLGSFDFIFVDADKDNYLNYHKRLIELVKVGGVIGYDNTLWNGSVVLPADAPMRKYIRYYRDFVLELNKALAADPRIEISQLPVGDGITLCRRVK
modifications: Depicts the nucleic acid sequence encoding Caffeoyl CoA O-methyltransferase (CCoAOMT)
B3: CYP71 Cinnamomum micranthum: CYP71 from Cinnamomum micranthum (protein)
chain: MALLLSLLFFASALIFLLKLNGQRANKTDVPPSPPKLPLIGNLHQLGTLPHRSLRSLAGKYGPLMLLYLGRIPTLIVSSEEMAEQIMKTHDLIFASRPSITAAKELLYGCTDLAFASYGEYWRQVRKMCVLELLSIKRVNSFRSIMEEEVGLMIERISQSSSTGAAVNLAELFLSLTGGTIARAALGKKYEGEAEEGRNKYADLVKELHALLGAFSVGDYFPSLAWVDVVTGLHGKLKRNSRELDRFLDQVIEHHLMRPLDGCDVGEHTDLVDVMLQVQKDSNRDIHLTRDNIKAIILDMFSAGTDTTALTLEWVMAELAKHPNVMKKAQGEVRRVVDVKANISEEHLCQLNYMKSIIKETLRLHPPAPLLVPRESTTNVKIQNFHIPPKTRVFINAYAIGRDPTSWENPEEFLPERFANNSVDFKGQDFQFIPFGAGRRGCPGLSFAITSLELALANLLYWFDWELPQGVTEEDLDMSEALGITVHKKLPLYLVPKNHFS
modifications: Depicts the nucleic acis sequence encoding CYP71 of Cinnamomum micranthum
B4: OMT Sinopodophyllum hexandrum: O-methyltransferase 3 (OMT) from Sinopodophyllum hexandrum (protein)
chain: MEMAPTMDLEIRNGNGYGDSGEELLAAQAHIYNHIFNFISSMALKCAVELNIPEILHNHQPKAVTLSELVQALQIPQAKSACLYRLLRILVHSGFFAITKIQSEGDEEGYLPTLSSKLLLKNHPMSMSPCLLGLVNPTMVAPMHFFSDWFKRSDDMTPFEATHGASLWKYFGETPHMAEIFNEAMGCETRLAMSVVLKECKGKLEGISSLVDVGGGTGNVGRAIAEAFPNVKCTVLDLPQVVGNLKGSNNLEFVSGDMFQFIPPADVVFLKWILHDWNDEECIKILKRCKEAIPSKEEGGKLIIIDMVVNDHNKGSYESTETQLFYDLTLMALLTGTERTETEWKKLFVAAGFTSYIISPVLGLKSIIEVFP
modifications: Depicts the nucleic acid sequence encoding O-methyltransferase 3 (OMT) of Sinopodophyllum hexandrum
notes: O-methyltransferase 3 (OMT) from Sinopodophyllum hexandrum
B5: CCoAOMT Chamaecyparis formosensis: Caffeoyl CoA O-methyltransferase (CCoAOMT) from Chamaecyparis formosensis (protein)
chain: MATVEATKDSTQQVSRHQEVGHKSLLQSDALYQYILETSVYPREPEPMRELREITAKHPWNLMTTSADEGQFLHLLLKLINAKNTMEIGVYTGYSLLSTALALPDDGKILAMDINRENYELGLPVIQKAGVAHKIDFREGPALPVLDQMLENKEMHGSFDFIFVDADKDNYLNYHKRLIDLVKIGGVIGYDNTLWNGSVVAPPDAPMRKYVRYYRDFVIELNKALAADPRIEISQIPVGDGITLCRRII
modifications: Depicts the nucleic acid sequence of Caffeoyl CoA O-methyltransferase (CCoAOMT) of Chamaecyparis formosensis
B6: CYP719 Cinnamomum micranthum: CYP719 from Cinnamomum micranthum (protein)
chain: MEAIWTAVAIGIAAAVLMAFRGRQRQRLSRKPTQWPPGPTRLPLIGNMHQILLKGGDPFHVAINKLAQVYGPLMTVWFGTRQPTIIVSDHNLVWEVLVSKSADYAAREIPITLKPSLADFRTIVSSNAGPLWHSLRRGLQNGAIGPHSLSLQAPFQESDMAQMINNMIKEANLNGGVVKPFPHIRRAIIKLLARICFGCDFSDEEFDATMDFMVEEALRYSDDSRILDTFPPARFLPSVKRAVMQMEKVKLRLMECIGRPLDSPLPPTCYAHFLLSQSFPREVAIFSIFELFLLGVDSTGSTTMWGLGLLMQNQEAQQKLYQEIREHASCNEKGVVKVEELGKLEYLQAVAKETMRMKPIAPLAVPHQAARDTTLDGLHVAEGTTVLANLYALHYDPKVWDEPERFKPERFLESSKEFLGKRGQYSFLPFGAGMRACAGMEVGKLQLPFAICNLVNAFNWSNVVEKEAPKLIEGFSFILSMKTPLEARIVPRGI
modifications: Depicts the nucleic acid sequence encoding CYP719 of Cinnamomum micranthum
B7: SDH Juglans regia: Secoisolariciresinol dehydrogenase (SDH) from Juglans regia (protein, listed as Juglans regia)
chain: MNGTSSLLAPIAKRLAGKVALITGGASGIGESTARLFAEQGAKVIIADVQDELGFSVSQDKSINGAISYIHCDVTSESDVQNAVNTAVSKHGKLDIMFNTAGCTGQNKASILDHEQKDYKTVFDVNVLGSFLGAKHAAKVMIPVKRGTILFTASCVTESHGLASHSYTASKHAVVGLTKNLCVELGQYGIRVNCISPYGAATPLFLKGMGIDKKEKAEEILSSAANLKGPVLEAGDLAEAALFLASEESKYVSVLNLVVDGGYSATNVAFTETIQKFFT
B8: 2-ODD Nitrospira moscoviensis: 2-oxoglutarate/Fe(II)-dependent dioxygenase (2-ODD) from Nitrospira moscoviensis (protein, listed as Nitrospira moscoviensis)
chain: MVSNMAMGITEAVDRAVAALDVDRLHREYWEQNEFLVIRQFLPRAFVEEVLVPQAQGVKTELNRNYIPGHKKGGSVSYYTVRRRAPLFLDLYRSDSFRAFLDRLVDAKLLLCPENDPHSCALYYYTEPGDHIGFHYDTSYYKGARYTILMGLVDRSTQCKLVCELFKDHPTKAPQRLELITEPGDMVIFNGDKLWHAVTPLGEGEERIALTMEYVTNPEMGAFKRLYSNLKDSFAYFGLKTVFKQALAKKSS

Each molecule was assayed on pathway specific substrates (assay: Enzyme functionality of pathway enzyme homologs and fusion constructs in lysed E. coli cell extracts, product by HPLC). Conditions: protein expressed in E. coli, lysed cell extract, pathway specific substrate, HPLC.
Type: biochemical, E. coli BL21
Experimental: As per one of the possible implementations of the present disclosure, two proteins—cinnamate-4-hydroxylate (C4H) and 4-coumaroyl CoA-ligase (4CL) were expressed as one fusion protein. Also, other two proteins which were expressed as one fusion protein were hydroxycinnamoyl-CoA quinate hydroxycinnamoyltransferase (HCT) and p-coumaroyl quinate 3′-hydroxylase (HCTC3H). The fusion gene and the corresponding fusion protein was prepared using the following method. […] The enzyme fusion constructs were made for the selected genes (Table 5). Pathway genes and the fusion constructs were individually cloned in E. coli expression vector pET28+ under T7 promoter and transformed in E. coli BL21 cells. Recombinant bacterial cells were induced with IPTG and enzyme functionality was tested with pathway specific substrates (Table 5) using lysed E. coli cell extracts. HPLC analysis was carried out to quantify the product formation and in turn shortlisting of efficient enzymes for functional pathway assembly towards Etoposide in E. coli.
The E. coli transformants were grown overnight at 37° C. in 1 ml of M9 minimal media containing ampicillin (100 mg/1), in 96-well format. The next day, 150 μl of each culture was inoculated into 3 ml M9 minimal media containing ampicillin (100 mg/1), IPTG 0.1 mM in 24-well format, and incubated at 30° C. and 200 rpm for ˜20 hours. The following day, cells were spun down and pellets were resuspended in 100 μl of lysis buffer containing 10 mM Tris-HCl pH 8, 5 mM MgCl2, 1 mM CaCl2) and complete mini protease inhibitor EDTA-free (3 tablets/100 ml) (Hoffmann-La Roche, Basel, Switzerland) and frozen at −80° C. for at least 15 minutes to promote cell lysis. Pellets were thawed at room temperature and 50 μl of DNase mix (1 μl of 1.4 mg/ml DNase in H2O (˜80000 u/ml), 1.2 μl of MgCl2 500 mM and 47.8 μl of 4×PBS buffer solution) was added to each well. Plates were shaken at 500 rpm for 5 min at room temperature to allow degradation of genomic DNA. Plates were spun down at 4000 rpm for 30 min at 4° C. and six μl of the lysates were used in in vitro using appropriate substrates for enzymes as per Table 6. In each case, the resulting compounds were measured by HPLC. Results were analysed in comparison with the lysates expressing the corresponding controls (the empty plasmid). […]

In the case of B1, the “enzyme activity (in words)” value is reported as “desirable enzyme activity”.
In the case of B6, the “enzyme activity (in words)” value is reported as “highest enzyme activity”.

Going from B2 to B3, the enzyme activity rises from 61% to 94%.

First: B4
Second: B5
The enzyme activity of the first is higher: 99% for the first, 95% for the second.

Going from B7 to B8, the enzyme activity falls from 99% to 96%.

Reference: patent US11898183B2, “Programmed microorganisms to attenuate a disease” (priority 2020, dated 2024)
